From IntAct's records for PubMed 19804756

Tests used:
nbs1_schpo nbs1 = nbs1_schpo nbs1 (UniProt O43070)
nbn_human NBN = nbn_human NBN (UniProt O60934)
Chain of nbn_human NBN (O60934 whole entry): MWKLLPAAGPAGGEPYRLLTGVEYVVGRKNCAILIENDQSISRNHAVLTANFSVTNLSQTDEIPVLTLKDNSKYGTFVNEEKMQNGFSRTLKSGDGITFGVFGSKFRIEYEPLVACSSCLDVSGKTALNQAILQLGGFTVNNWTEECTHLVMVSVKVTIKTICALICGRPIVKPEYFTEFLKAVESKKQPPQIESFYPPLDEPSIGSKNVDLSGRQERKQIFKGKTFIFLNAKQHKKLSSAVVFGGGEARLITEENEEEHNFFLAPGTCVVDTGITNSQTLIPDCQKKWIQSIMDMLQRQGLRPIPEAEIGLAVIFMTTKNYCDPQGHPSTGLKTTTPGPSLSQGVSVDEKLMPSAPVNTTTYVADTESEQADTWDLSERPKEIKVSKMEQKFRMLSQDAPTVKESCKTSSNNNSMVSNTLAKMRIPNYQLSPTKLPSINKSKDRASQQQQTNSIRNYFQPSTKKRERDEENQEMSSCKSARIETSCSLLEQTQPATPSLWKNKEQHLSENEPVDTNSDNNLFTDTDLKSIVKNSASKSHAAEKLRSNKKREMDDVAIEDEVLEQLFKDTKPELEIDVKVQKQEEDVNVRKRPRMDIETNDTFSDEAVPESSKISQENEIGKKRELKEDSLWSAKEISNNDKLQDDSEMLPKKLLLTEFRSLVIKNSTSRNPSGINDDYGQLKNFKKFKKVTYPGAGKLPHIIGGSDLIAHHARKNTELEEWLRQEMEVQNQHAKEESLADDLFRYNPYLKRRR

Chain of nbs1_schpo nbs1 (O43070 whole entry): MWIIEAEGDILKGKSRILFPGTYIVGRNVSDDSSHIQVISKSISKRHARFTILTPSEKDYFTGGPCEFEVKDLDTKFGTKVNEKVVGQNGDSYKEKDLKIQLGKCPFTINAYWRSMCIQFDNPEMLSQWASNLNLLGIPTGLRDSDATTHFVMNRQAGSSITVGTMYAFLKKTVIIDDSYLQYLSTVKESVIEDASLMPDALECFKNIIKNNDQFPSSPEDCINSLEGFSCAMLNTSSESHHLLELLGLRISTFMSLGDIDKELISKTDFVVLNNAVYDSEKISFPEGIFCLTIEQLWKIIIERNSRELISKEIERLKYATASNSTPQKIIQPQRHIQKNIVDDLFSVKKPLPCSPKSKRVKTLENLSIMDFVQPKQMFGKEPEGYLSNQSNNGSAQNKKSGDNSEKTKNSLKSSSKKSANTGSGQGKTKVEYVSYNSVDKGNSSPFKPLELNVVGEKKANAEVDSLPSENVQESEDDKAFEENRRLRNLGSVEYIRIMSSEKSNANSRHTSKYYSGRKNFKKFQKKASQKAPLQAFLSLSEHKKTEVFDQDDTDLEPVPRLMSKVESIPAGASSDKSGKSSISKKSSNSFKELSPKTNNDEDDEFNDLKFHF

Mediator of DNA damage checkpoint protein 1 (Homo sapiens), Q14676 E334A
effect of a mutation on the interaction (nbs1_schpo nbs1): decreasing interaction

Mediator of DNA damage checkpoint protein 1 (Homo sapiens), Q14676 T331S
effect of a mutation on the interaction (nbn_human NBN): decreasing interaction
